Patent US20030166162

Columns and labels:
[1] = target: glutathione S transferase KLIP 14 chymosin pro-peptide cystatin fusion protein
[2] = target: glutathione S transferase KLIP 16 chymosin pro-peptide cystatin fusion protein
[3] = target: T1, GST-wild type calf chymosin pro-peptide-cystatin fusion protein, P09229
T1 chain: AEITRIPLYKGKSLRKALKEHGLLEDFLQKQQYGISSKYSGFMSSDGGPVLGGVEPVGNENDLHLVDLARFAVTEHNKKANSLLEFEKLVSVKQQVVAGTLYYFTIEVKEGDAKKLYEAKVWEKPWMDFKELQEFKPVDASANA

[4] = target: glutathione S transferase KLIP 12 chymosin pro-peptide cystatin fusion protein
[5] = target: glutathione S transferase KLIP 11 chymosin pro-peptide cystatin fusion protein
[6] = target: glutathione S transferase KLIP 15 chymosin pro-peptide cystatin fusion protein
[7] = target: glutathione S transferase KLIP 4 chymosin pro-peptide cystatin fusion protein

B1: calf chymosin (protein)
chain: GEVASVPLTNYLDSQYFGKIYLGTPPQEFTVLFDTGSSDFWVPSIYCKSNACKNHQRFDPRKSSTFQNLGKPLSIHYGTGSMQGILGYDTVTVSNIVDIQQTVGLSTQEPGDVFTYAEFDGILGMAYPSLASEYSIPVFDNMMNRHLVAQDLFSVYMDRNGQESMLTLGAIDPSYYTGSLHWVPVTVQQYWQFTVDSVTISGVVVACEGGCQAILDTGTSKLVGPSSDILNIQQAIGATQNQYGEFDIDCDNLSYMPTVVFEINGKMYPLTPSAYTSQDQGFCTSGFQSENHSQKWILGDVFIREYYSVFDRANNLVGLAKAI
For B1, the % Cystatin accumulation following reaction, 0.5 hr @ 37 C [1] was 72%, the % Cystatin accumulation following reaction, 1.0 hr @ 37 C [1] was 87% and the % Cystatin accumulation following reaction, 2.0 hr @ 37 C [1] was 99%. For the same protein, the % Cystatin accumulation following reaction, 16 hr @ RT [1] was 70%, the % Cystatin accumulation following reaction, T = 0 [1] was 0% and the % Cystatin accumulation following reaction, 0.5 hr @ 37 C [2] was 0%. It also gave a % Cystatin accumulation following reaction, 1.0 hr @ 37 C [2] of 0%, a % Cystatin accumulation following reaction, 2.0 hr @ 37 C [2] of 0% and a % Cystatin accumulation following reaction, 16 hr @ RT [2] of 0%. For the same protein, the % Cystatin accumulation following reaction, T = 0 [2] was 0%, the “Scissile bond (N-terminal sequence)” value [2] was “Uncleavable” and the % Cystatin accumulation following reaction, 16 hr @ RT; product with N-terminus MSSDGG [3] was 50%. It also gave a % Cystatin accumulation following reaction, 16 hr @ RT; product with N-terminus SGFMSSDGG [3] of 50%, a % Cystatin accumulation following reaction, T = 0 [3] of 0% and a % Cystatin accumulation following reaction, 0.5 hr @ 37 C [4] of 84%. For the same protein, the % Cystatin accumulation following reaction, 1.0 hr @ 37 C [4] was 99.4%, the % Cystatin accumulation following reaction, 2.0 hr @ 37 C [4] was 87% and the % Cystatin accumulation following reaction, 16 hr @ RT [4] was 64%. The % Cystatin accumulation following reaction, T = 0 [4] was 0%, the % Cystatin accumulation following reaction, 0.5 hr @ 37 C [5] was 83% and the % Cystatin accumulation following reaction, 1.0 hr @ 37 C [5] was 80.5%. It also gave a % Cystatin accumulation following reaction, 2.0 hr @ 37 C [5] of 100%, a % Cystatin accumulation following reaction, 16 hr @ RT [5] of 67.8% and a % Cystatin accumulation following reaction, T = 0 [5] of 0%. The % Cystatin accumulation following reaction, 0.5 hr @ 37 C [6] was 40%, the % Cystatin accumulation following reaction, 1.0 hr @ 37 C [6] was 57.8% and the % Cystatin accumulation following reaction, 2.0 hr @ 37 C [6] was 77.8%. It also gave a % Cystatin accumulation following reaction, 16 hr @ RT [6] of 85%, a % Cystatin accumulation following reaction, T = 0 [6] of 0% and a % Cystatin accumulation following reaction, 0.5 hr @ 37 C [7] of 100%. It also gave a % Cystatin accumulation following reaction, 1.0 hr @ 37 C [7] of 100%, a % Cystatin accumulation following reaction, 2.0 hr @ 37 C [7] of 100% and a % Cystatin accumulation following reaction, 16 hr @ RT [7] of 87%. It also gave a % Cystatin accumulation following reaction, T = 0 [7] of 0%.
